One protein from article PMC10894483, “In silico design of multipoint mutants for enhanced performance of Thermomyces lanuginosus lipase for efficient biodiesel production” (Biotechnology for Biofuels and Bioproducts, 2024) can be followed below.

Substrate in the series: CCCCCCCCCCCCCCCC(=O)Oc1ccc([N+](=O)[O-])cc1
Description: colorimetric p-nitrophenol release, Michaelis-Menten fit. It is filed as biochemical, Thermomyces lanuginosus. The note with it: 45 °C, Tris-HCl pH 8.5, 10-100 mM pNPP, fermentation supernatant.

B1: Thermomyces lanuginosus lipase (TLL; wt–TLL) (Thermomyces lanuginosus) (protein)
chain: EVSQDLFNQFNLFAQYSAAAYCGKNNDAPAGTNITCTGNACPEVEKADATFLYSFEDSGVGDVTGFLALDNTNKLIVLSFRGSRSIENWIGNLNFDLKEINDICSGCRGHDGFTSSWRSVADTLRQKVEDAVREHPDYRVVFTGHSLGGALATVAGADLRGNGYDIDVFSYGAPRVGNRAFAEFLTVQTGGTLYRITHTNDIVPRLPPREFGYSHSSPEYWIKSGTLVPVTRNDIVKIEGIDATGGNNQPNIPDIPAHLWYFGLIGTCL
notes: N-terminal 6xHis-tag, yeast secretion signal, secreted from Pichia pastoris GS115; fermentation supernatant used without purification (single band); 35 kDa
As to B1, the Km stood at 3.61 ± 0.10 mM.

One may read the Km as the substrate concentration at which the rate is half of its maximum.
